Data: paper PMC9482650, “Quantitative fragmentomics allow affinity mapping of interactomes” (Nature Communications, 2022)
Values belong to the binder of their own block, whether it stands above or below them.

Columns and labels:
Assay in all cases: holdup assay
Set-up in all cases: key: below the threshold = too weak to quantify, mostly under pKd 3.1 to 4
GORASP2, Q9H8Y8 = biological target: GORASP2, Q9H8Y8
SHANK1, Q9Y566 = biological target: T1, SHANK1, Q9Y566
T1 sequence (Q9Y566 658-767, limits assumed, looked up): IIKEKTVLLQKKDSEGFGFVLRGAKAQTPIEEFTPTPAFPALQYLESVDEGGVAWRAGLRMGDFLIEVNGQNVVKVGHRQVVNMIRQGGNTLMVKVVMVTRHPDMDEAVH

DLG3_3, Q92796 = biological target: T2, DLG3_3, Q92796
T2 sequence (Q92796 374-475, limits assumed, looked up): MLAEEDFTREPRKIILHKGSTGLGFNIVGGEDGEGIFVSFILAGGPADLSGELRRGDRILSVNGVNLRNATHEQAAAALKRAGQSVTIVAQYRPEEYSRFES

Inadl_4, Q8NI35 = biological target: Inadl_4, Q8NI35
Chain of Inadl_4, Q8NI35 (Q8NI35 547-651): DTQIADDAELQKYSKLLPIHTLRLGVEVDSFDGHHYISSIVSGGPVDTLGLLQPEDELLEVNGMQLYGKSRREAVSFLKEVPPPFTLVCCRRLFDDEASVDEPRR

NHERF4_2, Q86UT5 = biological target: NHERF4_2, Q86UT5
Chain of NHERF4_2, Q86UT5 (Q86UT5 220-308): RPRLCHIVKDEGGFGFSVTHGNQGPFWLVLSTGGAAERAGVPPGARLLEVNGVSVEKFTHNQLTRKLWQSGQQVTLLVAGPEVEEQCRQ

IL16_3, Q14005 = biological target: IL16_3, Q14005
Chain of IL16_3, Q14005 (Q14005 1107-1207): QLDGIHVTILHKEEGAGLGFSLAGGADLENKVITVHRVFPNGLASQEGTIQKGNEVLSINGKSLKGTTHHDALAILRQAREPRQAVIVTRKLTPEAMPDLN

MAGI1_2, Q96QZ7 = biological target: MAGI1_2, Q96QZ7
Chain of MAGI1_2, Q96QZ7 (Q96QZ7 456-580): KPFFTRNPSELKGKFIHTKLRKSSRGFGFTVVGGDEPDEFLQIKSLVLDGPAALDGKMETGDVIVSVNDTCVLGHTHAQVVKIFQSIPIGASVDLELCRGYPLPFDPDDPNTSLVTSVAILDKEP

ARHGAP21, Q5T5U3 = biological target: T3, ARHGAP21, Q5T5U3
T3 sequence (Q5T5U3 45-169, limits assumed, looked up): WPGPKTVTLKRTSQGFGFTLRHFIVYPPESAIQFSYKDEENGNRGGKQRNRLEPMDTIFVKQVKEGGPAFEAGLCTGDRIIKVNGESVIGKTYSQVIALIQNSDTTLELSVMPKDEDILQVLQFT

LNX2_3, Q8N448 = biological target: T4, LNX2_3, Q8N448
T4 sequence (Q8N448 463-564, limits assumed, looked up): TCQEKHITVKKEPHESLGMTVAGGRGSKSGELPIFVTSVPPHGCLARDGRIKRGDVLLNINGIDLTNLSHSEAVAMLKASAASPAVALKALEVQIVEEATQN

Inadl_9, Q8NI35 = biological target: Inadl_9, Q8NI35
Chain of Inadl_9, Q8NI35 (Q8NI35 1530-1615): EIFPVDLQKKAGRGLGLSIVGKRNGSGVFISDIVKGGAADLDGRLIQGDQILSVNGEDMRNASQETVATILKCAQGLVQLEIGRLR

MAGI1_1, Q96QZ7 = biological target: MAGI1_1, Q96QZ7
Chain of MAGI1_1, Q96QZ7 (Q96QZ7 1-106): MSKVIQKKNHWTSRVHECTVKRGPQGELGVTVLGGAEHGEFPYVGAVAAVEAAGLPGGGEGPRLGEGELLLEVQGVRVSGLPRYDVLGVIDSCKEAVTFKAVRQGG

PCLO, Q9Y6V0 = biological target: T5, PCLO, Q9Y6V0
T5 sequence (Q9Y6V0 4491-4600, limits assumed, looked up): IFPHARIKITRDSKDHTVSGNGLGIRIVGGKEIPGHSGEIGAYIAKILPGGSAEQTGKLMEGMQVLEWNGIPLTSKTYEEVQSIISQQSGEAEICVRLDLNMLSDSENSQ

MAGI3_2, Q5TCQ9 = biological target: MAGI3_2, Q5TCQ9
Chain of MAGI3_2, Q5TCQ9 (Q5TCQ9 398-503): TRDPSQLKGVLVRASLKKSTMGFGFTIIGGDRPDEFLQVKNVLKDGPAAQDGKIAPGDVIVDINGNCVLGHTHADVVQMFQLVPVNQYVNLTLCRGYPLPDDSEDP

APBA2_2, Q99767 = biological target: T6, APBA2_2, Q99767
T6 sequence (Q99767 654-744, limits assumed, looked up): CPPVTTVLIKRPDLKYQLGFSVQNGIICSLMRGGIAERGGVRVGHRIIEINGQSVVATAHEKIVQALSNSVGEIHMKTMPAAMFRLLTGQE

MAGI2_4, Q86UL8 = biological target: MAGI2_4, Q86UL8
Chain of MAGI2_4, Q86UL8 (Q86UL8 772-865): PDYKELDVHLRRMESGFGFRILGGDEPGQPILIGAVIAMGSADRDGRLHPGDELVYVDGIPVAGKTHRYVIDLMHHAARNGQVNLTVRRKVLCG

LNX1_3, Q8TBB1 = biological target: LNX1_3, Q8TBB1
Chain of LNX1_3, Q8TBB1 (Q8TBB1 500-596): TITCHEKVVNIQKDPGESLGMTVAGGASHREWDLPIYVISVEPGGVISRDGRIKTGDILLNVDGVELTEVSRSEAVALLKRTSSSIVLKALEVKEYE

HTRA4, P83105 = biological target: T7, HTRA4, P83105
T7 sequence (P83105 378-476, limits assumed, looked up): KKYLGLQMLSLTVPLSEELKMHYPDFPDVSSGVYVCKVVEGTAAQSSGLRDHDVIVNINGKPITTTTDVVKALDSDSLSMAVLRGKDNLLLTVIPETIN

DLG2_3, Q15700 = biological target: DLG2_3, Q15700
NOS1, P29475 = biological target: NOS1, P29475
Chain of NOS1, P29475 (P29475 9-101): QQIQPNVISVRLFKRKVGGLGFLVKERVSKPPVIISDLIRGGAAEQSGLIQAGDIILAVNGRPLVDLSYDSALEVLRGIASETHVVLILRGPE

PARD3B_1, Q8TEW8 = biological target: T8, PARD3B_1, Q8TEW8
T8 sequence (Q8TEW8 196-299, limits assumed, looked up): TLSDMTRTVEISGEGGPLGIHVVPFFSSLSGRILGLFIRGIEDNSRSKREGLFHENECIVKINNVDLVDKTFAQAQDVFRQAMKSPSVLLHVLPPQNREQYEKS

GOPC, Q9HD26 = biological target: GOPC, Q9HD26
FRMPD4, Q14CM0 = biological target: FRMPD4, Q14CM0
Chain of FRMPD4, Q14CM0 (Q14CM0 67-160): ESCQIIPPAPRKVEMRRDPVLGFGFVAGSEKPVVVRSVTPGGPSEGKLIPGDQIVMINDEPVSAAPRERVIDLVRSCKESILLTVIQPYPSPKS

IL16_4, Q14005 = biological target: IL16_4, Q14005
Chain of IL16_4, Q14005 (Q14005 1229-1329): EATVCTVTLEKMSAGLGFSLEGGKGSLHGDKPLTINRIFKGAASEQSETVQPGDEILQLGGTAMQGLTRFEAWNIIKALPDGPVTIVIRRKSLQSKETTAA

LRRC7, Q96NW7 = biological target: T9, LRRC7, Q96NW7
T9 sequence (Q96NW7 1440-1537, limits assumed, looked up): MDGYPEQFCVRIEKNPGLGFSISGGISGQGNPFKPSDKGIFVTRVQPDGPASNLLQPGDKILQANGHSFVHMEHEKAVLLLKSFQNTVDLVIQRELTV

Inadl_6, Q8NI35 = biological target: Inadl_6, Q8NI35
Chain of Inadl_6, Q8NI35 (Q8NI35 1058-1167): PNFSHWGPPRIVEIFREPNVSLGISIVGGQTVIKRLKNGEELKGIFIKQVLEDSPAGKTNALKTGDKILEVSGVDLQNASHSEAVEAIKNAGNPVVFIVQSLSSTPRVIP

SYNJ2BP, P57105 = biological target: T10, SYNJ2BP, P57105
T10 sequence (P57105 8-110, limits assumed, looked up): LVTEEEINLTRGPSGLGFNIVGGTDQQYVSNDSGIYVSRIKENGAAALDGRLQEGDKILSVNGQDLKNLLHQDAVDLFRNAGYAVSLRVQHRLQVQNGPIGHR

FRMPD2_3, Q68DX3 = biological target: FRMPD2_3, Q68DX3
Chain of FRMPD2_3, Q68DX3 (Q68DX3 1073-1166): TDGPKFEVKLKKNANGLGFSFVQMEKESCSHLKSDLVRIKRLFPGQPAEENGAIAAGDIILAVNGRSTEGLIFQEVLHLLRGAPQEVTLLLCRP

[1] = plain residues with an end cap or a label only (N-terminal biotin on a linker: ahx)
[2] = plain residues with an end cap or a label only (N-terminal biotin on a linker: ado-ado)
[3] = plain residues with an end cap or a label only (N-terminal biotin on a linker: ttds)

pKd (GORASP2, Q9H8Y8; [1]): 3.57
pKd (SHANK1, Q9Y566; [1]): 5.25
pKd (DLG3_3, Q92796; [1]): below the threshold
pKd (Inadl_4, Q8NI35; [1]): below the threshold
pKd (NHERF4_2, Q86UT5; [1]): below the threshold
pKd (IL16_3, Q14005; [1]): below the threshold
pKd (MAGI1_2, Q96QZ7; [1]): below the threshold
pKd (ARHGAP21, Q5T5U3; [1]): 3.87
pKd (LNX2_3, Q8N448; [1]): below the threshold
pKd (Inadl_9, Q8NI35; [1]): below the threshold
pKd (MAGI1_1, Q96QZ7; [1]): below the threshold
pKd (PCLO, Q9Y6V0; [1]): below the threshold
pKd (MAGI3_2, Q5TCQ9; [1]): below the threshold
pKd (APBA2_2, Q99767; [1]): below the threshold
pKd (MAGI2_4, Q86UL8; [1]): 3.51
pKd (LNX1_3, Q8TBB1; [1]): below the threshold
pKd (HTRA4, P83105; [1]): below the threshold
pKd (DLG2_3, Q15700; [1]): below the threshold
pKd (NOS1, P29475; [1]): below the threshold
pKd (PARD3B_1, Q8TEW8; [1]): 4.52
pKd (GOPC, Q9HD26; [1]): below the threshold
pKd (FRMPD4, Q14CM0; [1]): 4.42
pKd (IL16_4, Q14005; [1]): below the threshold
pKd (LRRC7, Q96NW7; [1]): below the threshold
pKd (Inadl_6, Q8NI35; [1]): 3.71
pKd (SYNJ2BP, P57105; [1]): below the threshold
pKd (FRMPD2_3, Q68DX3; [1]): below the threshold
Binder: KEYDDELTFF [USH1C, Q9Y6N9]

pKd (GORASP2, Q9H8Y8; [2]): below the threshold
pKd (SHANK1, Q9Y566; [2]): 3.76
pKd (DLG3_3, Q92796; [2]): below the threshold
pKd (Inadl_4, Q8NI35; [2]): below the threshold
pKd (NHERF4_2, Q86UT5; [2]): below the threshold
pKd (IL16_3, Q14005; [2]): below the threshold
pKd (MAGI1_2, Q96QZ7; [2]): below the threshold
pKd (ARHGAP21, Q5T5U3; [2]): below the threshold
pKd (LNX2_3, Q8N448; [2]): below the threshold
pKd (Inadl_9, Q8NI35; [2]): below the threshold
pKd (MAGI1_1, Q96QZ7; [2]): below the threshold
pKd (PCLO, Q9Y6V0; [2]): below the threshold
pKd (MAGI3_2, Q5TCQ9; [2]): below the threshold
pKd (APBA2_2, Q99767; [2]): below the threshold
pKd (MAGI2_4, Q86UL8; [2]): below the threshold
pKd (LNX1_3, Q8TBB1; [2]): below the threshold
pKd (HTRA4, P83105; [2]): below the threshold
pKd (DLG2_3, Q15700; [2]): below the threshold
pKd (NOS1, P29475; [2]): below the threshold
pKd (PARD3B_1, Q8TEW8; [2]): below the threshold
pKd (GOPC, Q9HD26; [2]): below the threshold
pKd (FRMPD4, Q14CM0; [2]): below the threshold
pKd (IL16_4, Q14005; [2]): below the threshold
pKd (LRRC7, Q96NW7; [2]): below the threshold
pKd (Inadl_6, Q8NI35; [2]): below the threshold
pKd (SYNJ2BP, P57105; [2]): below the threshold
pKd (FRMPD2_3, Q68DX3; [2]): below the threshold
Binder: EKPIDSETKM [SLC1A3, P43003]

pKd (GORASP2, Q9H8Y8; [1]): below the threshold
pKd (SHANK1, Q9Y566; [1]): below the threshold
pKd (DLG3_3, Q92796; [1]): below the threshold
pKd (Inadl_4, Q8NI35; [1]): below the threshold
pKd (NHERF4_2, Q86UT5; [1]): below the threshold
pKd (IL16_3, Q14005; [1]): below the threshold
pKd (MAGI1_2, Q96QZ7; [1]): below the threshold
pKd (ARHGAP21, Q5T5U3; [1]): 3.91
pKd (LNX2_3, Q8N448; [1]): below the threshold
pKd (Inadl_9, Q8NI35; [1]): below the threshold
pKd (MAGI1_1, Q96QZ7; [1]): below the threshold
pKd (PCLO, Q9Y6V0; [1]): below the threshold
pKd (MAGI3_2, Q5TCQ9; [1]): below the threshold
pKd (APBA2_2, Q99767; [1]): below the threshold
pKd (MAGI2_4, Q86UL8; [1]): 3.55
pKd (LNX1_3, Q8TBB1; [1]): below the threshold
pKd (HTRA4, P83105; [1]): below the threshold
pKd (DLG2_3, Q15700; [1]): below the threshold
pKd (NOS1, P29475; [1]): 3.83
pKd (PARD3B_1, Q8TEW8; [1]): 4.57
pKd (GOPC, Q9HD26; [1]): below the threshold
pKd (FRMPD4, Q14CM0; [1]): 4.65
pKd (IL16_4, Q14005; [1]): below the threshold
pKd (LRRC7, Q96NW7; [1]): below the threshold
pKd (Inadl_6, Q8NI35; [1]): 3.86
pKd (SYNJ2BP, P57105; [1]): below the threshold
pKd (FRMPD2_3, Q68DX3; [1]): below the threshold
Binder: VNENQKEYFF [CNTNAP4, Q9C0A0]

pKd (GORASP2, Q9H8Y8; [3]): below the threshold
pKd (SHANK1, Q9Y566; [3]): below the threshold
pKd (DLG3_3, Q92796; [3]): 4.77
pKd (Inadl_4, Q8NI35; [3]): below the threshold
pKd (NHERF4_2, Q86UT5; [3]): below the threshold
pKd (IL16_3, Q14005; [3]): below the threshold
pKd (MAGI1_2, Q96QZ7; [3]): 3.91
pKd (ARHGAP21, Q5T5U3; [3]): below the threshold
pKd (LNX2_3, Q8N448; [3]): below the threshold
pKd (Inadl_9, Q8NI35; [3]): below the threshold
pKd (MAGI1_1, Q96QZ7; [3]): below the threshold
pKd (PCLO, Q9Y6V0; [3]): below the threshold
pKd (MAGI3_2, Q5TCQ9; [3]): 4.76
pKd (APBA2_2, Q99767; [3]): below the threshold
pKd (MAGI2_4, Q86UL8; [3]): below the threshold
pKd (LNX1_3, Q8TBB1; [3]): below the threshold
pKd (HTRA4, P83105; [3]): below the threshold
pKd (DLG2_3, Q15700; [3]): 4.64
pKd (NOS1, P29475; [3]): 3.52
pKd (PARD3B_1, Q8TEW8; [3]): 3.76
pKd (GOPC, Q9HD26; [3]): 3.6
pKd (FRMPD4, Q14CM0; [3]): below the threshold
pKd (IL16_4, Q14005; [3]): below the threshold
pKd (LRRC7, Q96NW7; [3]): below the threshold
pKd (Inadl_6, Q8NI35; [3]): below the threshold
pKd (SYNJ2BP, P57105; [3]): 4.7
pKd (FRMPD2_3, Q68DX3; [3]): below the threshold
Binder: PSRDRKETSI [RALBP1, Q15311]

pKd (GORASP2, Q9H8Y8; [2]): below the threshold
pKd (SHANK1, Q9Y566; [2]): below the threshold
pKd (DLG3_3, Q92796; [2]): below the threshold
pKd (Inadl_4, Q8NI35; [2]): below the threshold
pKd (NHERF4_2, Q86UT5; [2]): below the threshold
pKd (IL16_3, Q14005; [2]): below the threshold
pKd (MAGI1_2, Q96QZ7; [2]): below the threshold
pKd (ARHGAP21, Q5T5U3; [2]): below the threshold
pKd (LNX2_3, Q8N448; [2]): below the threshold
pKd (Inadl_9, Q8NI35; [2]): below the threshold
pKd (MAGI1_1, Q96QZ7; [2]): below the threshold
pKd (PCLO, Q9Y6V0; [2]): below the threshold
pKd (MAGI3_2, Q5TCQ9; [2]): below the threshold
pKd (APBA2_2, Q99767; [2]): below the threshold
pKd (MAGI2_4, Q86UL8; [2]): below the threshold
pKd (LNX1_3, Q8TBB1; [2]): below the threshold
pKd (HTRA4, P83105; [2]): below the threshold
pKd (DLG2_3, Q15700; [2]): 3.62
pKd (NOS1, P29475; [2]): below the threshold
pKd (PARD3B_1, Q8TEW8; [2]): below the threshold
pKd (GOPC, Q9HD26; [2]): below the threshold
pKd (FRMPD4, Q14CM0; [2]): below the threshold
pKd (IL16_4, Q14005; [2]): below the threshold
pKd (LRRC7, Q96NW7; [2]): below the threshold
pKd (Inadl_6, Q8NI35; [2]): below the threshold
pKd (SYNJ2BP, P57105; [2]): 3.5
pKd (FRMPD2_3, Q68DX3; [2]): below the threshold
Binder: DAAHHDESNC [FMNL3, Q8IVF7]
